This assay concerns the target T1, antibody G1 Fab fragment.
T1 construct: also called TEV-48125; fremanezumab
Nature of the assay: SPR (Biacore) competition: 50 nM G1 Fab pre-incubated 1 h with 10 µM competing peptide, then flowed over N-biotinylated human α-CGRP on SA chip. An excerpt:
Y axis represents percentage of binding blocked by the presence of the competing peptide compared with the binding in the absence of the competing peptide.
All these peptides are amidated at the C-terminus.

Where no end group is shown, it is not given here.

T1 sequence (VH, as listed by the source, chain 1 of 2): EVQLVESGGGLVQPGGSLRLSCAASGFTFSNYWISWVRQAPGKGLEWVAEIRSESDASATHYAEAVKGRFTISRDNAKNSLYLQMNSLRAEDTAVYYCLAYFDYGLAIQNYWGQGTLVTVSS
T1 sequence (VL, as listed by the source, chain 2 of 2): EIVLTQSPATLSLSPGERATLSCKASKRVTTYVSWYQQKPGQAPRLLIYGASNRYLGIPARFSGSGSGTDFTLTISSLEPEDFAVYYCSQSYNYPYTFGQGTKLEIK

B1: 19-36 CONH2 (peptide)
peptide: SGGVVKNNFVPTNVGSKA-NH2
notes: also called peptide fragment 19-36 (amidated at the C-terminus) of human α-CGRP
With B1, the binding result is “no binding (tested: 10 µM)”.

Source of the values: US20220098287A1 (Teva, published 2022).
